# Experimental data reported in IntAct's records for PubMed 16427013.
# B1: Protein NRD1 (Saccharomyces cerevisiae), P53617 (parent)
# chain: MQQDDDFQNFVATLESFKDLKSGISGSRIKKLTTYALDHIDIESKIISLIIDYSRLCPDSHKLGSLYIIDSIGRAYLDETRSNSNSSSNKPGTCAHAINTLGEVIQELLSDAIAKSNQDHKEKIRMLLDIWDRSGLFQKSYLNAIRSKCFAMDISNNTANTASQQLSLDPKQRSKQILSNLKKSPPLNLNISLPTDLTSTDPAKQQAALFQVIAALQKHFKTLPSHTSVGTVAPPQAHTITEYGSRRERERERERYNSRRNRSRSPPAPFSQPSTGRKDRYPSVAQDQYSIGAPNTTFGTNNHHLYPDELNVSNNPHYRPKPVSYDSTLPPDHIKVYSRTLFIGGVPLNMKEWDLANVLKPFAEVQSVILNNSRKHAFVKVYSRHEAENVLQNFNKDGALPLRTRWGVGFGPRDCCDYQHGYSIIPMHRLTDADKKWSVSAQWGGTSGQPLVTGIVFEEPDIIVGEGVSSKAISQKMPTDSGRNGPRSGKPNKSGSISSISPVPYGNAPLASPPPQQYVQPMMQQPYGYAPNQPLPSQGPAAAAPPVPQQQFDPTAQLNSLMNMLNQQQQQQQQS
# partner: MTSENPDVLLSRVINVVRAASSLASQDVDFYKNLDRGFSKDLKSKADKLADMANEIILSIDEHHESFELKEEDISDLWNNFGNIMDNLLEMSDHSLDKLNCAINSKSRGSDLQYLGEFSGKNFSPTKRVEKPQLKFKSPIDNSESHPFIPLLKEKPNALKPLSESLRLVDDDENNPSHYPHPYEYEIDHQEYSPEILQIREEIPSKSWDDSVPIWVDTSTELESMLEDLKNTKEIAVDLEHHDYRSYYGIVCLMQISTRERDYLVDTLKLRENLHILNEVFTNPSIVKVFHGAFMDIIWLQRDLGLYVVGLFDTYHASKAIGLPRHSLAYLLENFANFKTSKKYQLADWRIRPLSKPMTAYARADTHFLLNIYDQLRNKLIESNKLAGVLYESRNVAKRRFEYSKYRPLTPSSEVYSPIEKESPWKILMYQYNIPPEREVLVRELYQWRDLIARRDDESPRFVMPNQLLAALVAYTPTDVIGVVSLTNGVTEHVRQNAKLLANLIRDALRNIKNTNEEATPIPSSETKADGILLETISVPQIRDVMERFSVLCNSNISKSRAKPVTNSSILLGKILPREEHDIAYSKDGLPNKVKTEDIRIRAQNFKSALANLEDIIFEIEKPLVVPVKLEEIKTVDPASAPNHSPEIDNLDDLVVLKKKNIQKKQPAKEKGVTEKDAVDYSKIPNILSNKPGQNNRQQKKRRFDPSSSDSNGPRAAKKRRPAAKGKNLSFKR
# Variants of: B1
# Settings: with rrp6_yeast RRP6, Q12149
row,Variant,effect of a mutation on the interaction
1,MQQDDDFQNFVATLESFKDLKSGISGSRIKKLTTYALDHIDIESKIISLIIDYSRLCPDSHKLGSLYIIDSIGRAYLDETRSNSNSSSNKPGTCAHAINTLGEVIQELLSDAIAKSNQDHKEKIRMLLDIWDRSGLFQKSYLNAIRSKCFAMDISNNTANTASQQLSLDPKQRSKQILSNLKKSPPLNLNISLPTDLTSTDPAKQQAALFQVIAALQKHFKTLPSHTSVGTVAPPQAHTITEYGSRRERERERERYNSRRNRSRSPPAPFSQPSTGRKDRYPSVAQDQYSIGAPNTTFGTNNHHLYPDELNVSNNPHYRPKPVSYDSTLPPDHIKVYSRTLFIGGVPLNMKEWDLANVLKPFAEVQSVILNNSRKHAFRKVYSRHEAENVLQNFNKDGALPLRTRWGVGFGPRDCCDYQHGYSIIPMHRLTDADKKWSVSAQWGGTSGQPLVTGIVFEEPDIIVGEGVSSKAISQKMPTDSGRNGPRSGKPNKSGSISSISPVPYGNAPLASPPPQQYVQPMMQQPYGYAPNQPLPSQGPAAAAPPVPQQQFDPTAQLNSLMNMLNQQQQQQQQS [V379R],with no effect
